B1: SETD8 (parent)
chain: GKQAPRKKAQGKTQQNRKLTDFYP

Variants of: B1
Assay: protein stability index of a GFP-peptide fusion (GPS, HEK-293T) (PSI 1-6); higher = more stable
Conditions: c terminus: a fixed tail appended
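Also: lentivirally expressed fusions sorted by FACS into six bins by GFP to DsRed ratio, PSI derived from sequencing read proportions per bin multiplied by bin number.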

Protein stability index of substitutions, site by site:
L19: A 4.54, R 4.33, H 3.77, S 4.39, Q 3.84, Y 3.32, N 4.73, D 5.33, W 2.97, K 4, G 3.91
D21: R 3.46, A 3.03, Y 2.97, M 3.46, C 4.41, K 3.91, V 3.21, T 3.9, E 1.79, N 3.24, H 3.57, F 2.59, L 3.53, I 3.13, P 3.83
P24: M 4.09, F 3.48, L 3.56, R 2.67, N 2.18, I 3.44, W 1.91, H 4.02, Q 3.65, S 3.43, Y 2.73, A 2.66, C 3.62, K 3.09, D 4.33, G 4.31
A9: C 2.77, H 2.6, I 3.08, D 3.57, M 2.54, Q 2.89, P 3.43, Y 3.35, N 4.09
P5: F 2.95, W 2.57, L 2.74, T 1.74, G 4.29, I 3.36, A 2.52, M 3.08, S 4.65, Y 2.2, V 3.18, Q 3.75, E 3.58, K 3.35, H 2.85, C 1.99
K8: T 2.77, F 1.63, Q 4.11, R 2.75, H 2.99, M 3.47, G 3.85, A 3.52, L 1.99, C 3.48, Y 3.22, S 3.55, W 3.3, N 2.77, P 3.76, I 3.04
F22: P 4.98, I 4.13, E 4.61, K 4.97, R 3.6, H 4.13, S 4.69, L 4.51, M 4.7, N 4.77, Q 4.17, G 4.75, T 4.57, D 3.15, A 4.61
Y23: S 4.39, H 4.93, I 4.07, E 4.51, V 4.05, D 4.64, G 4.34, Q 4.04, T 5.12, K 5.33, N 4.83, P 4.44, C 4.28, L 3.96
K7: E 2.82, F 2.42, T 2.78, W 2.95, N 2.21, M 3.72, S 2.48, Y 3.06, Q 3.96, D 3.07
A4: Q 2.77, V 1.83, T 2.71, S 4.29, W 3.3, R 3.15, P 2.63
Q10: P 2.65, I 2.86, D 3.17, M 2.55, S 4.86, A 3.52, E 2.78, W 2.08, F 3.28, V 3.01, Y 3.22, R 3.16
R17: C 2.96, N 3.34, I 3.68, P 3.06, T 2.61, G 3.91, K 2.59, D 3.8, L 2.32, E 3.13, F 2.88, H 2.88
K12: R 2.99, I 2.85, F 4.09, T 3.32, C 2.19, N 3.07, P 2.51, D 2.51, A 2.76, E 3.66, Y 3.42, W 3.08, L 3.21, G 3.37

Reference: the supplement of paper PMC10567573
